Legend:
[1] = system: NADPH oxidase; assay: p47phox foci (active NADPH oxidase) in bone marrow-derived macrophages, confocal microscopy; assay type: cell-based, mouse; conditions: WT BMMs; 1,000 units/ml 24 h pretreatment, then 5 mM ATP 1 h
[2] = system: gp91^phox; assay: gp91phox mRNA in bone marrow-derived macrophages (qRT-PCR); assay type: cell-based, mouse; conditions: WT BMMs; 1,000 units/ml, 24 h
Experimental: Nlrp3, Asc, Casp1 and Txnip mRNA expression were evaluated by qRT-PCR. Bone marrow-derived macrophages from wild-type and Ifnar1^−/− mice were incubated with or without 100 ng/ml Ultrapure LPS for 3 hours, and the mRNA expression for each gene was measured by RT-PCR using standard techniques, showing no significant differences between the samples. Similarly, cell surface expression of ATP receptor P2X7R and CD39 (nucleoside triphosphate diphosphohydrolase 1), an ectonucleotidase that hydrolyzes extracellular ATP, on wild-type and Ifnar1^−/− macrophages were determined to be equivalent by flow cytometry using standard techniques. […] Wild-type bone marrow-derived macrophages were incubated with or without 1,000 units/ml rIFNβ for 24 hours before determining levels of gp91^phox mRNA in the total RNA by qRT-PCR using standard techniques. […] DQ ovalbumin staining locates lysosomes. The proportion of cells with DQ ovalbumin leakage to cytoplasm due to ruptured lysosomes was evaluated by incubating wild-type and Ifnar1^−/− macrophages with DQ ovalbumin (10 μg/ml) alone or a combination of DQ ovalbumin (10 μg/ml) and Alum (250 μg/ml) for 1 hour. Wild-type cells were also measured with and without exposure to rIFNα.

[3] = system: GTP-Rac1; assay: GTP-Rac1 level in bone marrow-derived macrophages (western blot); assay type: cell-based, mouse; conditions: WT BMMs; 1,000 units/ml 24 h pretreatment, then 5 mM ATP 5, 10 or 15 min
Experimental: Bone marrow-derived macrophages obtained from wild-type mice were pretreated with 1,000 units/ml rIFNα or IFNβ for 24 hours before treatment with 5 mM ATP for 5, 10, or 15 minutes. Cells were then lysed, and total GTP-Rac1 was compared to GTP-Rac1 by western blot first using an antibody specific for GTP-Rac1, followed by membrane stripping and probing with an antibody recognizing total Rac1. GTP-Rac1 signal densitometry for each sample was normalized to total Rac1 using NIH Image/Image J software.

[4] = system: mitochondrial ROS; assay: ATP-induced mitochondrial ROS generation in macrophages (MITOSOX Red, flow cytometry); assay type: cell-based; conditions: 1,000 units/ml added 24 hr prior to 5 mM ATP for 30 min
Experimental: This example assessed whether ROS generated by the mitochondria may play a role in NLRP3 inflammasome activation. We tested whether IFNβ suppresses ROS generated by mitochondria with MITOSOX™ Red (Invitrogen™). A time course of ATP-induced mitochondrial ROS generation in macrophages was generated using macrophages incubated with 5 mM ATP for the time indicated in FIG. 12A. Macrophages were incubated with 5 mM ATP for indicated time at 37° C. in complete RPMI medium. ROS activity increase was calculated as mean fluorescence intensity value increase (percent) of MITOSOX™ RED staining by flow cytometry. An increase of mean fluorescent intensity (MFI) of the MITOSOX™ staining is shown in FIG. 12(A, B) as the reference point of MFI at time=0 (i.e., no ATP treatment). The ROS activity increase was calculated as mean fluorescence intensity value increase (percent) of MITOSOX™ Red staining by flow cytometry (FIG. 12A).
Suppression of mitochondrial ROS generation by type-1 IFNs was examined. Cells were incubated with 5 mM ATP for 30 min rIFNα or rIFNβ (1,000 units/mL) was added 24 hr prior to the ATP treatment. […]

B1: rIFNβ: recombinant mouse IFN-β (protein, UniProt P01575 22-182, looked up)
Interferon beta: INYKQLQLQERTNIRKCQELLEQLNGKINLTYRADFKIPMEMTEKMQKSYTAFAIQEMLQNVFLVFRNNFSSTGWNETIVVRLLDELHQQTVFLKTVLEEKQEERLTWEMSSTALHLKSYYWRVQRYLKLMKYNSYAWMVVRAEIFRNFLIIRRLTRNFQN
formation of p47phox foci [1]: inhibited the formation of p47^phox foci | gp91phox mRNA expression [2]: did not affect gp91^phox mRNA expression | cellular levels of GTP-Rac1 (Rac1 activation) [3]: inhibit activation of GTP Rac1 | mitochondrial ROS generation [4]: suppressed

Source: patent US20120177632A1, “METHODS OF OPTIMIZING DISEASE TREATMENT” (priority 2011, published 2012)
